According to the supplement of paper PMC10126150:
± gives the standard deviation of the averaged measurements.

Test system: ATP
Assay: switch fluorescence ratio, 500 uM ATP over buffer (Cy3 cluster intensity, sum of 5 cycles each) (fold (ratio)); higher = stronger signal-on switching upon ATP binding; sequences stand for … in TCGTCGGCAGCGTCAGATGTGTATAAGAGACAGTTTTTTTTTTTTTTTTTTTTTTTTT…TC
Details: aptamer strand: ATP DNA aptamer (quencher-CACCTGGGGGAGTATTGCGGAGGAAGG + anchor), 100 nM annealed; ATP concentration: 500 uM
Method in brief: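 Cy3-labelled switching-strand clusters on a modified Illumina MiSeq flow-cell were annealed to 100 nM quencher-labelled ATP aptamer and imaged first in selection buffer, then after 15 min with 500 uM ATP at 22 °C. NaOH stripping and re-annealing separated each of five buffer/ATP cycles, and clusters outside 100-1000 RFU were excluded. The fluorescence ratio sums target-cycle Cy3 intensity over buffer-cycle Cy3 intensity per cluster and averages it per switch-domain sequence.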
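Also: ATP exposure 15 min at 22 °C before imaging.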

Row | Sequence | switch fluorescence ratio
1 | AAATTGTCGT | 0.977 ± 0.042
2 | AAATTTACCT | 1.42 ± 0.072
3 | AAATTTATTA | 1.03 ± 0.037
4 | AAATTTATTT | 0.9932 ± 0.0038
5 | AAATTTGAAG | 1.02 ± 0.012
6 | AAATTTGGGT | 1.01 ± 0.013
7 | AAATTTGTGT | 0.999 ± 0.051
8 | AAATTTGTTG | 0.992 ± 0.011
9 | AAATTTTAAT | 0.979 ± 0.04
10 | AAATTTTGGG | 1 ± 0.019
11 | AACAGACCTT | 1.13 ± 0.12
12 | AACAGCAATT | 1.27 ± 0.35
13 | AACAGGGGAG | 1.03 ± 0.03
14 | AACAGGGGGC | 1.04 ± 0.023
15 | AACAGGGTCT | 0.991 ± 0.038
16 | AACAGTGAAA | 1.02 ± 0.02
17 | AACAGTTTTT | 0.989 ± 0.044
18 | AACATATCGG | 1.02 ± 0.029
19 | AACATCGTTT | 1.02 ± 0.019
20 | AACATGGGGA | 0.976 ± 0.025
21 | AACATTATTT | 1.022 ± 0.0014
22 | AACATTGGGG | 1.02 ± 0.024
23 | AACCAATAGC | 1.1 ± 0.035
24 | AACCAGAAAT | 0.992 ± 0.01
25 | AACCAGGACT | 1.02 ± 0.013

Row | Sequence | switch fluorescence ratio
26 | AACCAGTGCG | 1.08 ± 0.032
27 | AACCCAACGA | 1.27 ± 0.025
28 | AACCCATGCT | 1.05 ± 0.064
29 | AACCCCCGTT | 1.07 ± 0.09
30 | AACCCTTTGC | 1.04 ± 0.016
31 | AACCGCGATG | 2.25 ± 0.1
32 | AACCTATGGT | 0.978 ± 0.0042
33 | AACCTCCGTT | 1.71 ± 0.064
34 | AACCTGTCGC | 1.3964 ± 0.0013
35 | AACCTTAGGA | 1.05 ± 0.017
36 | AACCTTATTT | 0.9965 ± 0.0022
37 | AACCTTGACG | 1.07 ± 0.047
38 | AACCTTGGGG | 1.11 ± 0.079
39 | AACGAATTAG | 1.04 ± 0.038
40 | AACGACAATT | 1.118 ± 0.0016
41 | AACGACTTGT | 1.01 ± 0.037
42 | AACGAGAAGC | 0.9895 ± 0.004
43 | AACGCATGTG | 1 ± 0.039
44 | AACGCCTTCG | 1.177 ± 0.011
45 | AACGCGAACG | 1.06 ± 0.016
46 | AACGCGAGTA | 0.986 ± 0.03
47 | AACGCGTGGG | 1.01 ± 0.003
48 | AACGCTGGCG | 0.966 ± 0.028
49 | AACGGACGCT | 1.16 ± 0.064
50 | AACGGACGGG | 1.27 ± 0.095

Row | Sequence | switch fluorescence ratio
51 | AACGGAGAGC | 1.034 ± 0.01
52 | AACGGAGTGC | 1 ± 0.045
53 | AACGGCAGGG | 1 ± 0.024
54 | AACGGCTCTC | 0.988 ± 0.043
55 | AACGGGATTA | 0.987 ± 0.047
56 | AACGGGCTTT | 0.969 ± 0.013
57 | AACGGGGTCT | 0.978 ± 0.011
58 | AACGGGTATG | 1.011 ± 0.004
59 | AACGGTCACA | 1.16 ± 0.021
60 | AACGGTCAGA | 1.02 ± 0.05
61 | AACGGTGGGG | 0.992 ± 0.034
62 | AACGGTTGCG | 0.965 ± 0.016
63 | AACGGTTTAA | 1.05 ± 0.014
64 | AACGTACTTG | 1.54 ± 0.044
65 | AACGTAGCGG | 1.07 ± 0.03
66 | AACGTAGGGA | 1.93 ± 1.2
67 | AACGTAGTCG | 1.031 ± 0.0046
68 | AACGTCTCGA | 1.01 ± 0.025
69 | AACGTGAGTG | 1.02 ± 0.011
70 | AACGTGCCTG | 0.979 ± 0.077
71 | AACGTGCGTG | 0.9973 ± 0.0028
72 | AACGTGTGGG | 0.996 ± 0.1
73 | AACGTTAGGA | 1.03 ± 0.051
74 | AACGTTATAA | 1.05 ± 0.02
75 | AACGTTCATG | 1.02 ± 0.044

Row | Sequence | switch fluorescence ratio
76 | AACGTTTAGG | 1.015 ± 0.0099
77 | AACGTTTTCT | 0.991 ± 0.012
78 | AACTAGAGAC | 0.975 ± 0.01
79 | AACTAGAGGG | 0.98 ± 0.017
80 | AACTATAATG | 0.997 ± 0.044
81 | AACTATGCAG | 1.02 ± 0.017
82 | AACTCGGAAT | 1.03 ± 0.028
83 | AACTCGTGGG | 0.975 ± 0.026
84 | AACTCTAGCA | 1.073 ± 0.0052
85 | AACTCTTAAG | 1.03 ± 0.02
86 | AACTCTTCTT | 1.04 ± 0.035
87 | AACTGAAGTC | 0.976 ± 0.01
88 | AACTGAGATT | 1.02 ± 0.024
89 | AACTGATTTC | 0.963 ± 0.03
90 | AACTGCAACA | 1.22 ± 0.031
91 | AACTGGGGGG | 1 ± 0.045
92 | AACTGTATAT | 1.15 ± 0.019
93 | AACTGTCAGA | 0.9903 ± 0.0036
94 | AACTGTTGTA | 0.986 ± 0.0024
95 | AACTTAGTAT | 1.018 ± 0.01
96 | AACTTATTTT | 1 ± 0.003
97 | AACTTGGCGC | 1.01 ± 0.057
98 | AACTTGGGTG | 1.02 ± 0.035
99 | AACTTTAGGG | 0.997 ± 0.039
100 | AACTTTATGA | 1.02 ± 0.01

Row | Sequence | switch fluorescence ratio
101 | AACTTTGTGC | 1 ± 0.055
102 | AACTTTTACG | 1.074 ± 0.0069
103 | AACTTTTCAT | 1.02 ± 0.02
104 | AACTTTTGCT | 1.03 ± 0.066
105 | AACTTTTTAA | 1.01 ± 0.012
106 | AAGAAAATAC | 1 ± 0.024
107 | AAGAAAGGGG | 0.979 ± 0.034
108 | AAGAAAGGTC | 0.994 ± 0.12
109 | AAGAAATTTG | 0.992 ± 0.015
110 | AAGAACTATG | 1.02 ± 0.034
111 | AAGAACTTGC | 0.982 ± 0.053
112 | AAGAAGGAGG | 1.01 ± 0.029
113 | AAGAAGTGTA | 1.006 ± 0.0083
114 | AAGAATATCA | 1.02 ± 0.016
115 | AAGACGATGT | 0.995 ± 0.013
116 | AAGACGGGGT | 1.01 ± 0.049
117 | AAGACTGTTT | 0.954 ± 0.026
118 | AAGACTTCTT | 0.98673 ± 0.00038
119 | AAGACTTGTG | 0.981 ± 0.019
120 | AAGAGACAGG | 1.05 ± 0.042
121 | AAGAGAGGCA | 1.02 ± 0.023
122 | AAGAGATACG | 1.04 ± 0.059
123 | AAGAGATTTG | 0.981 ± 0.018
124 | AAGAGCAGGG | 0.975 ± 0.011
125 | AAGAGCCATC | 0.9527 ± 0.009

Row | Sequence | switch fluorescence ratio
126 | AAGAGCCGCG | 1.03 ± 0.045
127 | AAGAGCGAAG | 1.01 ± 0.014
128 | AAGAGCGAGG | 0.945 ± 0.036
129 | AAGAGCTAGT | 1 ± 0.013
130 | AAGAGGAGAG | 1.036 ± 0.0073
131 | AAGAGGGCCT | 1.01 ± 0.037
132 | AAGAGGGCTT | 0.994 ± 0.016
133 | AAGAGGGGTG | 1.01 ± 0.025
134 | AAGAGGGTAT | 0.9835 ± 0.0065
135 | AAGAGGTGAA | 0.987 ± 0.013
136 | AAGAGGTGGA | 1.028 ± 0.0098
137 | AAGAGTGTGG | 1.02 ± 0.058
138 | AAGAGTTCCT | 1.03 ± 0.032
139 | AAGAGTTCGT | 0.955 ± 0.023
140 | AAGATAGAAC | 0.9783 ± 0.0068
141 | AAGATCACTT | 0.979 ± 0.041
142 | AAGATCTCGC | 0.994 ± 0.025
143 | AAGATCTTAT | 1.01 ± 0.031
144 | AAGATGCAGC | 1.05 ± 0.12
145 | AAGATGGAGG | 0.973 ± 0.037
146 | AAGATGGGGA | 1.01 ± 0.016
147 | AAGATTCGCG | 0.9914 ± 0.0014
148 | AAGATTGAGC | 0.937 ± 0.022
149 | AAGATTTAAG | 1.02 ± 0.014
150 | AAGATTTCGG | 1.015 ± 0.0084

Row | Sequence | switch fluorescence ratio
151 | AAGATTTGAG | 0.992 ± 0.01
152 | AAGCAGGGGA | 1.05 ± 0.032
153 | AAGCATGGGA | 1.01 ± 0.022
154 | AAGCCCGCAC | 1.879 ± 0.0067
155 | AAGCCGGCTA | 1.03 ± 0.023
156 | AAGCCGTAGG | 0.991 ± 0.044
157 | AAGCCGTGTC | 1.01 ± 0.031
158 | AAGCGGCTCG | 0.996 ± 0.03
159 | AAGCGGGG | 1.006 ± 0.002
160 | AAGCGGGGAA | 1.02 ± 0.03
161 | AAGCGGGGAG | 1.04 ± 0.04
162 | AAGCGGGGGT | 1.02 ± 0.026
163 | AAGCGTCTCA | 0.997 ± 0.011
164 | AAGCGTCTGG | 1.02 ± 0.024
165 | AAGCGTTTTT | 1.018 ± 0.0045
166 | AAGCTAAAAT | 0.996 ± 0.053
167 | AAGCTAATTT | 1.01 ± 0.011
168 | AAGCTCGTGC | 0.973 ± 0.089
169 | AAGCTTATAT | 0.9999 ± 0.0089
170 | AAGCTTATGC | 1.04 ± 0.085
171 | AAGCTTGTGT | 0.997 ± 0.069
172 | AAGCTTTCGT | 1.03 ± 0.014
173 | AAGGAAGCCG | 1.06 ± 0.044
174 | AAGGACACGG | 1.042 ± 0.01
175 | AAGGACCCCT | 1.06 ± 0.026

Row | Sequence | switch fluorescence ratio
176 | AAGGACGCCA | 1.05 ± 0.028
177 | AAGGACGGGG | 0.974 ± 0.011
178 | AAGGACGGTG | 1.0045 ± 0.00079
179 | AAGGAGAAGA | 0.993 ± 0.01
180 | AAGGAGCTTG | 0.9735 ± 0.0038
181 | AAGGAGGGGT | 0.9968 ± 0.0081
182 | AAGGAGGGTG | 1.02 ± 0.019
183 | AAGGAGTAGC | 1.04 ± 0.095
184 | AAGGATCGTT | 1 ± 0.018
185 | AAGGATTAAC | 0.985 ± 0.032
186 | AAGGCACAAG | 1 ± 0.021
187 | AAGGCACCGT | 1.03 ± 0.038
188 | AAGGCAGGGC | 0.972 ± 0.04
189 | AAGGCCTATA | 0.998 ± 0.0088
190 | AAGGCGACGT | 0.994 ± 0.015
191 | AAGGCGGGTA | 1 ± 0.021
192 | AAGGCGGGTG | 1.01 ± 0.015
193 | AAGGCGTTTT | 1.01 ± 0.018
194 | AAGGCTAATT | 0.979 ± 0.033
195 | AAGGCTGGTG | 1.02 ± 0.015
196 | AAGGCTTGGG | 0.992 ± 0.048
197 | AAGGGAAACA | 1.04 ± 0.072
198 | AAGGGACAGT | 1.03 ± 0.016
199 | AAGGGACGGC | 0.9648 ± 0.0078
200 | AAGGGACTGC | 0.97 ± 0.018
